Laboratory results taken from patent US20090069241A1, “Compositions and Methods for Use of Pigment Epithelial Derived Factor (PEDF) Peptide Fragments” (Yale University, priority 2006, published 2009).

Tests used:
[1] = tested on: inner retina (INL, IPL, retinal ganglion cell layer); experiment: Transient retinal ischemia-reperfusion injury with intravitreous injection; morphometric analysis of inner retina; format: in vivo, C57/B16 mice; parameters: thickness of the INL compared with non-ischemia control / thickness of the IPL compared with non-ischemia control / surviving cells in the RGC layer compared with non-ischemia control: concentration or dose not given beside the values; conditions: for surviving cells in the RGC layer compared with non-ischemia control / thickness of the INL compared with non-ischemia control / thickness of the IPL compared with non-ischemia control: single intravitreous injection immediately after ischemia
Procedure: Induction of transient retinal ischemia in C57/B16 mice: Animal experiments were conducted in accordance with ARVO guidelines and were approved by the Animal Care and Use Committee of Yale University School of Medicine. Transient retinal ischemia was induced in one eye and the contralateral eye served as control. During the operation and recovery period, animals were placed on water heating pads at 37° C. […] Briefly, animals were anesthetized by i.p. injection of a mixture of 100 mg/kg Ketamine+10 mg/kg Xylazine. […] The anterior chambers were cannulated in fully anesthetized animals with a 30-gauge infusion needle connected by PE10 polyethylene tubing and IV set to a physiological saline reservoir. The intraocular pressure (IOP) of the cannulated eye was raised to 120 mmHg for 60 minutes by elevating the saline reservoir. Retinal ischemia was confirmed by direct microscopic observation of whitening of the fundus. The reperfusion was confirmed visually when needle was withdrawn from the anterior chamber. One group of animals was treated with Vetropolycin® ophthalmic ointment (Pharmaderm, Melville, N. Y.) on the ischemic eyes and allowed to recover for 24 hours, 48 hours, 7 days and 14 days before sacrifice. Other groups were kept for intravitreous injections of the PEDF and PEDF peptides.
Intravitreous injection of PEDF, PEDF peptides and encapsulated PEDF peptide: One group of animals remained uninjected to monitor ischemic damage. All other groups received intravitreal injections, which were performed under an ophthalmic microscope. […] Intravitreous injection was performed with 30-gauge beveled needle attached to PE10 polyethylene tubing and a 10 μl syringe (Hamilton, Reno, Nev.). The injections were performed through the sclera, approximately 1 mm behind the limbus. The needle remained in the vitreous cavity for 30 seconds after injection then gently withdrawn. Control groups were injected with 1 μl PBS, 1 μl control peptide (1 μg/μl), or blank nanospheres (0.1 mg/μl). […] Vetropolycin® ointment was applied to the injected eyes and animals were allowed to recover for 48 hours or 7 days before sacrifice.
Preparation of retinal tissue: at designated time points, mice were sacrificed by carbon dioxide inhalation followed by, in some cases, cervical dislocation. The eyes were enucleated, fixed in 4% paraformaldehyde for 24 hours, washed with PBS and embedded in paraffin. Five (5) μm thick sections that included the optic nerve were collected. Sections were processed for TUNEL, immunocytochemistry, or histochemical staining with hematoxylin and eosin (Surgipath, Ltd, Richmond, Ill.) using standard methods.
Morphologic and Morphometric Analysis: For each eye, three sections, which included the optic disk and were spaced at least 20 μm apart, were used for morphological analysis. The fields analyzed were 4×250 μm zones sampled from all retinal eccentricities. These zones were 500 μm away from the edge of optic disk or the ora serrata. The average measurement of these 4 zones was used for statistical analysis. The mean thickness of inner nuclear layer (INL) and inner plexiform layer (IPL) was measured using Axiovision3.1 software (Carl Zeiss MicroImaging, Inc., Thornwood, N.Y.). Total surviving cells in the retinal ganglion cell layer at the same locations were counted using light microscopy.
Statistical analysis: Twelve fields per retina were analyzed for each treatment, and a total of 72 fields were used. For statistical analysis, one-way analysis of variance (ANOVA) and Fisher tests were performed; p<0.05 was taken as significant. Data are presented as means and standard deviations.

VEGFR2 = VEGFR2 (Homo sapiens, UniProt P35968); experiment: Block of VEGFR2 phosphorylation; conditions: compared to recombinant, non-modified human PEDF
VEGFR1 = VEGFR1 (Homo sapiens, UniProt P17948); experiment: VEGFR1 binding; conditions: compared to PEDF purified from human plasma or recombinant non-modified human PEDF
VEGF = experiment: Block of VEGF mitogenic signaling; conditions: compared to recombinant, non-modified human PEDF
[2] = target: VEGF receptor KDR (VEGFR2) (Homo sapiens, UniProt P35968); experiment: ELISA binding to VEGF receptor KDR
GFAP = GFAP immunocytochemical labeling of Müller glial cells after transient ischemia; format: in vivo, C57/B16 mice
Procedure: Induction of transient retinal ischemia in C57/B16 mice: Animal experiments were conducted in accordance with ARVO guidelines and were approved by the Animal Care and Use Committee of Yale University School of Medicine. Transient retinal ischemia was induced in one eye and the contralateral eye served as control. During the operation and recovery period, animals were placed on water heating pads at 37° C. Eighty-one 10-14 weeks male C57/B16 mice (Charles River Laboratories, Wilmington, Mass., weighing […]) were used in this experiment. To induce retinal ischemia, a previously established technique with some modifications was used (Hughes, 1991, Exp Eye Res. 53(5):573-582; Buchi et al., 1991, Opthalmologica 203 (3): 138-147). Briefly, animals were anesthetized by i.p. injection of a mixture of 100 mg/kg Ketamine+10 mg/kg Xylazine. The corneas were topically anesthetized with 0.5% proparacaine hydrochloride (Bausch & Lomb Pharmaceuticals, Inc., Tampa, Fla.), and the pupils dilated with 2.5% phenylephrine (Bausch & Lomb Pharmaceuticals, Inc., Tampa, Fla.). The anterior chambers were cannulated in fully anesthetized animals with a 30-gauge infusion needle connected by PE10 polyethylene tubing and IV set to a physiological saline reservoir. The intraocular pressure (IOP) of the cannulated eye was raised to 120 mmHg for 60 minutes by elevating the saline reservoir. Retinal ischemia was confirmed by direct microscopic observation of whitening of the fundus. The reperfusion was confirmed visually when needle was withdrawn from the anterior chamber. One group of animals was treated with Vetropolycin® ophthalmic ointment (Pharmaderm, Melville, N. Y.) on the ischemic eyes and allowed to recover for 24 hours, 48 hours, 7 days and 14 days before sacrifice. Other groups were kept for intravitreous injections of the PEDF and PEDF peptides.
Intravitreous injection of PEDF, PEDF peptides and encapsulated PEDF peptide: One group of animals remained uninjected to monitor ischemic damage. All other groups received intravitreal injections, which were performed under an ophthalmic microscope. Experimental groups received 1 μl native PEDF protein (1 μg/μl), PEDF82-121 peptide (1 μg/μl), PEDF76-95 peptide (1 μg/μl), PEDF91-110 peptide (1 μg/μl), PEDF106-125 peptide (1 μg/μl) or PLGA PEDF82-121 nanospheres (0.1 mg/μl, less than 1.6 μg PEDF82-121 peptide when fully released) immediately after the end of the transient ischemia. Intravitreous injection was performed with 30-gauge beveled needle attached to PE10 polyethylene tubing and a 10 μl syringe (Hamilton, Reno, Nev.). The injections were performed through the sclera, approximately 1 mm behind the limbus. The needle remained in the vitreous cavity for 30 seconds after injection then gently withdrawn. […]

[3] = 7 days post ischemia, free single bolus or nanospheres
[4] = 48 hours after ischemia reperfusion

VEGFR1, sequence (P17948 27-1338, species assumed): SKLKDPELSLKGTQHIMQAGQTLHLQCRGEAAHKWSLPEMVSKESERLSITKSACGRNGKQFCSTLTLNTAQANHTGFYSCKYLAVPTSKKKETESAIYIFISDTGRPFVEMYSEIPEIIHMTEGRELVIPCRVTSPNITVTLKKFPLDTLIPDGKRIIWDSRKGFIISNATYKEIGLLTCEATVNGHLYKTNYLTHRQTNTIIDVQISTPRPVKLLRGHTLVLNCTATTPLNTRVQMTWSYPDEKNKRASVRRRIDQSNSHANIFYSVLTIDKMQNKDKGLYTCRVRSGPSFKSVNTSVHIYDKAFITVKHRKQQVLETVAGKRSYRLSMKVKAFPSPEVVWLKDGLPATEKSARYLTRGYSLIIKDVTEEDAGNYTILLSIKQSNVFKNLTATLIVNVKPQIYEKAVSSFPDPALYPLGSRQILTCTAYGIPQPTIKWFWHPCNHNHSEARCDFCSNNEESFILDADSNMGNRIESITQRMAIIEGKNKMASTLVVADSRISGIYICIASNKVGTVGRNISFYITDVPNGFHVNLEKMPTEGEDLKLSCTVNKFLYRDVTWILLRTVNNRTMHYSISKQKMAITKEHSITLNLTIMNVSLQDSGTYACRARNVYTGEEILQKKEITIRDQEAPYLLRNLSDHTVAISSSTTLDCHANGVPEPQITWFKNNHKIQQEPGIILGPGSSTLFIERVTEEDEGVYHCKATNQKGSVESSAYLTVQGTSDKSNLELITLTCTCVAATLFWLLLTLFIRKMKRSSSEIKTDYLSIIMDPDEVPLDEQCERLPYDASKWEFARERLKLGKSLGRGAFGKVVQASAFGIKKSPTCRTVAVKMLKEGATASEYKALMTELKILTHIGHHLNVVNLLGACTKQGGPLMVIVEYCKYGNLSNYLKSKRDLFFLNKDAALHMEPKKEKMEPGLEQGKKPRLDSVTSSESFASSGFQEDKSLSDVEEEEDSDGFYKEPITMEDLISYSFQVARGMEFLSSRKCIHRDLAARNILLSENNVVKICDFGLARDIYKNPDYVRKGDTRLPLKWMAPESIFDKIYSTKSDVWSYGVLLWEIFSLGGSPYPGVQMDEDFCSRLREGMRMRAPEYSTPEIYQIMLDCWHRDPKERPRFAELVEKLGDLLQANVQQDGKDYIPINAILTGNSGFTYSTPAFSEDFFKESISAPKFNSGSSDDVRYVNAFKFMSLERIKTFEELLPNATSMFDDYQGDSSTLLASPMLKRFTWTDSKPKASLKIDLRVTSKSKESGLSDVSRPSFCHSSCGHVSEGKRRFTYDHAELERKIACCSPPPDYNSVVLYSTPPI
VEGFR2, sequence (P35968 20-1356, species assumed): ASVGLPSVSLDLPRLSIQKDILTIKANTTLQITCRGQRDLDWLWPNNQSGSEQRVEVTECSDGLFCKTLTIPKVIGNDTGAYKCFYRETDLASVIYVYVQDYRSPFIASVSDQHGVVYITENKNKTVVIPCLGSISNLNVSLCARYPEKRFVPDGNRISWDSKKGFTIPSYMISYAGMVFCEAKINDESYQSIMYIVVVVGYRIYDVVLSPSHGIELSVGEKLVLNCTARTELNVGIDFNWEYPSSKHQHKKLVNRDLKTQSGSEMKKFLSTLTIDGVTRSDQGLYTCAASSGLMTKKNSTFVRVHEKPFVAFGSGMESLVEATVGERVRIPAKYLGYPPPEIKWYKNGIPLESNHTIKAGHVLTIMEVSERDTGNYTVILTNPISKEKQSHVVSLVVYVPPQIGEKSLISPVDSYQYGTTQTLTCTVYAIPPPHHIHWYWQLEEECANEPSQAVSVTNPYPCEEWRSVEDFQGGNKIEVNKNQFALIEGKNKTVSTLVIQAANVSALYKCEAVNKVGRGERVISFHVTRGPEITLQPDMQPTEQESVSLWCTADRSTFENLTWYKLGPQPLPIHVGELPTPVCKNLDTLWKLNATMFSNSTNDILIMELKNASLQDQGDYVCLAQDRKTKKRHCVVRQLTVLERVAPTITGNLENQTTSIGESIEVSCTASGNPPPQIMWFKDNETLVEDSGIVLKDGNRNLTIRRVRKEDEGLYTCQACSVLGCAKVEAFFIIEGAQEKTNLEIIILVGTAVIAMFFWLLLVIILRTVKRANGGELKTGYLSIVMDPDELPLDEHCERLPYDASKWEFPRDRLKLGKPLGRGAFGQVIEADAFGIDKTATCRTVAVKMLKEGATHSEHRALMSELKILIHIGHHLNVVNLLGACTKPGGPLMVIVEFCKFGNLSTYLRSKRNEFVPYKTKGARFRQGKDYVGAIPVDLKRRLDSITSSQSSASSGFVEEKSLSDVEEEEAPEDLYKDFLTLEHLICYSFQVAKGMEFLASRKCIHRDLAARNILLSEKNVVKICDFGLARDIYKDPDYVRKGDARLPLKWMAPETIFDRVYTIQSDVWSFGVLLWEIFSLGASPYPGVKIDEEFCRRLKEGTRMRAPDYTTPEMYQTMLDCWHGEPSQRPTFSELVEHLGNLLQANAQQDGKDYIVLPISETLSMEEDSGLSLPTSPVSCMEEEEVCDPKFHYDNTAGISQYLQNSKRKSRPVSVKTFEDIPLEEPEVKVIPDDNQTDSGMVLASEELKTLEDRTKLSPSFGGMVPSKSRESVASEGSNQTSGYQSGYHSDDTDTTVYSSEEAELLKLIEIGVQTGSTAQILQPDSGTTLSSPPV
VEGF receptor KDR (VEGFR2), sequence (P35968 20-1356, species assumed): as above

PEDF76-95: residues 76 to 95 of human PEDF, TNVLLSPLSVATALSALSLG (SEQ ID NO: 5) ((1)..(20) Residues 76-95 of human PEDF; listed as Homo sapiens)
protection of the IPL (in words) ([1]; seven days after ischemic injury): protected | protection of the INL (in words) ([1]; seven days after ischemic injury, versus control peptide PEDF136-155): protected the INL significantly

PEDF91-110: residues 91 to 110 of human PEDF, ALSLGAEQRTESIIHRALYY (SEQ ID NO: 7) ((1)..(20) Residues 91-110 of human PEDF; listed as Homo sapiens)
protection of the retinal ganglion cell layer (in words) [1, 3]: significantly protecting | RGCs protected from dying after ischemic injury ([1]; after ischemic injury): about 85%

PEDF106-125: residues 106 to 125 of human PEDF, RALYYDLISSPDIHGTYKEL (SEQ ID NO: 9) ((1)..(20) Residues 106-125 of human PEDF; listed as Homo sapiens)
protection of the retinal ganglion cell layer (in words) [1, 3]: significantly protecting

B1: coPEDF: bacterially expressed codon-optimized fusion protein: thioredoxin, His6 tag, thrombin site and S-Tag fused N-terminally to human PEDF (protein)
chain: QNPASPPEEGSPDPDSTGALVEEEDPFFKVPVNKLAAAVSNFGYDLYRVRSSMSPTTNVLLSPLSVATALSALSLGADERTESIIHRALYYDLISSPDIHGTYKELLDTVTAPQKNLKSASRIVFEKKLRIKSSFVAPLEKSYGTRPRVLTGNPRLDLQEINNWVQAQMKGKLARSTKEIPDEISILLLGVAHFKGQWVTKFDSRKTSLEDFYLDEERTVRVPMMSDPKAVLRYGLDSDLSCKIAQLPLTGSMSIIFFLPLKVTQNLTLIEESLTSEFIHDIDRELKTVQAVLTVPKLKLSYEGEVTKSLQEMKLQSLFDSPDFSKITGKPIKLTQVEHRAGFEWNEDGAGTTPSPGLQPAHLTFPLDYHLNQPFIFVLRDTDTGALLFIGKILDPRGP
modifications: left off: large carriers; small tags and cut ends
notes: bacterially expressed codon-optimized fusion protein: thioredoxin, His6 tag, thrombin site and S-Tag fused N-terminally to human PEDF
block of VEGFR2 phosphorylation (VEGFR2): greater effect | VEGFR1 binding (VEGFR1): increased VEGFR1 binding | block of VEGF mitogenic signaling (VEGF): greater effect | binding to VEGF receptor KDR (VEGFR2) [2]: improves binding

B2: PEDF protein: full length pigment epithelium-derived factor, a 50 kD protein of the serpin family (protein, listed as Homo sapiens)
chain: MQALVLLLCIGALLGHSSCQNPASPPEEGSPDPDSTGALVEEEDPFFKVPVNKLAAAVSNFGYDLYRVRSSMSPTTNVLLSPLSVATALSALSLGADERTESIIHRALYYDLISSPDIHGTYKELLDTVTAPQKNLKSASRIVFEKKLRIKSSFVAPLEKSYGTRPRVLTGNPRLDLQEINNWVQAQMKGKLARSTKEIPDEISILLLGVAHFKGQWVTKFDSRKTSLEDFYLDEERTVRVPMMSDPKAVLRYGLDSDLSCKIAQLPLTGSMSIIFFLPLKVTQNLTLIEESLTSEFIHDIDRELKTVQAVLTVPKLKLSYEGEVTKSLQEMKLQSLFDSPDFSKITGKPIKLTQVEHRAGFEWNEDGAGTTPSPGLQPAHLTFPLDYHLNQPFIFVLRDTDTGALLFIGKILDPRGP
surviving cells in the RGC layer compared with non-ischemia control [1, 4]: 85.4% | thickness of the INL compared with non-ischemia control [1, 4]: 100% | thickness of the IPL compared with non-ischemia control [1, 4]: 86.6% | protection of the retinal ganglion cell layer (in words) ([1]; 48 hours post ischemia, versus PBS or PEDF136-155): significantly reduced cell death | surviving cells in the RGC layer compared with non-ischemia control ([1]; 7 days after injury): 87.4% | thickness of the INL compared with non-ischemia control ([1]; 7 days after injury): 82.5% | thickness of the IPL compared with non-ischemia control ([1]; 7 days after injury): 78.2% | protection of the retinal ganglion cell layer (in words) [1, 3]: significantly reduced cell death | IPL thickness after ischemic injury (in words) ([1]; compared to PBS injected controls, time not stated): prevented the thinning of the IPL | GFAP labeling compared to PBS injections (GFAP; 48 hours after transient ischemia): less GFAP labeling | GFAP staining (GFAP; 7 days after injury): very similar staining
